Results taken from paper PMC4514675, “Novel Apo E-Derived ABCA1 Agonist Peptide (CS-6253) Promotes Reverse Cholesterol Transport and Induces Formation of preβ-1 HDL In Vitro” (PLoS ONE, 2015).

Tests used:
ABCA1 [1] = target: T1, ABCA1 (Homo sapiens, UniProt O95477); assay: ABCA1-mediated phospholipid efflux from BHK-ABCA1 cells; assay type: cell-based; design: expressed in transfected cells; host or cells: BHK cells, stably transfected, induced with 10 nM mifepristone; details: mean of triplicates ± SD, n = 3
T1 sequence (O95477 whole entry): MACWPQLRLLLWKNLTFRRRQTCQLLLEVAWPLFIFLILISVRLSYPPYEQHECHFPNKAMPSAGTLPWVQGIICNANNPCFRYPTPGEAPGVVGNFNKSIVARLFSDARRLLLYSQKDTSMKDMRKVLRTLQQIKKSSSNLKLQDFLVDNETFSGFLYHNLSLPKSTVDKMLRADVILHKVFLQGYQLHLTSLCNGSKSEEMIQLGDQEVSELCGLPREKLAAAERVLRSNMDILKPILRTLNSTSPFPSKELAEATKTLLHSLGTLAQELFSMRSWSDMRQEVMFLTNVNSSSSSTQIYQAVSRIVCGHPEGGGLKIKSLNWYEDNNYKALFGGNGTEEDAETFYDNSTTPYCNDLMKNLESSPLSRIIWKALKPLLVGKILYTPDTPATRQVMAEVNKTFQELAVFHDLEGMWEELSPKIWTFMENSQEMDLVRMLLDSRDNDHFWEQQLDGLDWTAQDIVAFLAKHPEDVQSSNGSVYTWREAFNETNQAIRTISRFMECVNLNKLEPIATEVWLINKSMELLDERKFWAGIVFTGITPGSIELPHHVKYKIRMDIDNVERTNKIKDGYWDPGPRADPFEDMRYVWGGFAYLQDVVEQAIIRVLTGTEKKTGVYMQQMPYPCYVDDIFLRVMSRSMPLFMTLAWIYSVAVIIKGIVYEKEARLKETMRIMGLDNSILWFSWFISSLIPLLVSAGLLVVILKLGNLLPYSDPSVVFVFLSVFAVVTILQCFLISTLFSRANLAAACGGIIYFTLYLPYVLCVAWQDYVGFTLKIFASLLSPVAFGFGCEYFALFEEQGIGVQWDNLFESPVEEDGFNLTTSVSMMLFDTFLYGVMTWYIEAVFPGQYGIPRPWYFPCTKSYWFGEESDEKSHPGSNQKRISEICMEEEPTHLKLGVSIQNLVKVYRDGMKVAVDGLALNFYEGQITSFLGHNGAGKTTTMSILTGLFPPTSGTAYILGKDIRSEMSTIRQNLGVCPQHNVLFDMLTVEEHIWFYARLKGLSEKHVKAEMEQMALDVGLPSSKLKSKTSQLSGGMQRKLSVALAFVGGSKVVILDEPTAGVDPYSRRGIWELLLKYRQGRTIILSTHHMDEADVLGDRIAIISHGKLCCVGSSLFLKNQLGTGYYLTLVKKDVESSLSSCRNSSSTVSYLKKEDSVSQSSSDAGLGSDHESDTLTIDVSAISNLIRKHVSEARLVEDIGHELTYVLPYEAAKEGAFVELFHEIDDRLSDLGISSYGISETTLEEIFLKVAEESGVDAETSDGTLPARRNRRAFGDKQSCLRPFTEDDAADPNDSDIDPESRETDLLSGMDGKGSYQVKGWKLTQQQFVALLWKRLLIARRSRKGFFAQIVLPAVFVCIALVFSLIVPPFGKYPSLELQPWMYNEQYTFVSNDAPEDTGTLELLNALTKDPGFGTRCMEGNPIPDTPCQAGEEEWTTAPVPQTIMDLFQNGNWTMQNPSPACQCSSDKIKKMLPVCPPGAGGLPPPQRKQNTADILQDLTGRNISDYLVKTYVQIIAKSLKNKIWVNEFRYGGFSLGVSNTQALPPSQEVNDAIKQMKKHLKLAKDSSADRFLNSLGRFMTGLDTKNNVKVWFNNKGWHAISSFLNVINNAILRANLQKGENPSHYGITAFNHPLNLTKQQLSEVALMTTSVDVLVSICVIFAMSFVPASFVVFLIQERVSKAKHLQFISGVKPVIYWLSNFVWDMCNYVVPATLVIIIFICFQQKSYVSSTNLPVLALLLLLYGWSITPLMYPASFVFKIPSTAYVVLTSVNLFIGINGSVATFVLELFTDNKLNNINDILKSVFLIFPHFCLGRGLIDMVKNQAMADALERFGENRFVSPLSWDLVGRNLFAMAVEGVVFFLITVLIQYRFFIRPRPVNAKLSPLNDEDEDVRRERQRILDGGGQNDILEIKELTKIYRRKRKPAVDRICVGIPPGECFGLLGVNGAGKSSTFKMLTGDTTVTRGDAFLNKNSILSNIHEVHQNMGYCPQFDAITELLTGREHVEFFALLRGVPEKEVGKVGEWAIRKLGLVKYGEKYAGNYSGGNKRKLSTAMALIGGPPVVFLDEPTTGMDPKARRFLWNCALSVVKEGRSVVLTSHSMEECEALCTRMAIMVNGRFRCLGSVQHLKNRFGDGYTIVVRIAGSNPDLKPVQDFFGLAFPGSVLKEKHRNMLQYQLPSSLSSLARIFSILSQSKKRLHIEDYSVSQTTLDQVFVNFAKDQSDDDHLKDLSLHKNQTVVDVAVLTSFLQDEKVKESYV
Description: Supplementary file pone.0131997.s003.tif: S2 Fig Phospholipid efflux from BHK cells expressing ABCA1 to increasing concentrations of lipid free CS-6253 and apo A-I. Baby hamster kidney (BHK) cells were labeled with ^3[H]-choline. ABCA1 expression was induced by treating BHK cells with 10 nM mifepristone. Cells were then changed into fresh DMEM medium [no apolipoprotein A-I (apoA-I)] and incubated with apoA-I or CS-6253 (0.96 uM). Medium was collected after 2 h. […] Results represent the mean of triplicates ± SD, n = 3. (TIF) Click here for additional data file.
Cells were seeded (50×10^3 cells) in 24 well plates containing DMEM plus 10% FBS with 3 μCi/ml ^3H-choline chloride (Perkin Elmer, Norwalk, Connecticut), for 72 hours as previously reported with minor changes). Cells were then put into induction medium for 18–20 h (10 nM mifepristone). This was followed by incubation with increased molar doses of apo A-I and CS-6253 for 2 h at 37°C. Efflux medium was collected, and cellular lipids were extracted with hexane/isopropanol (3:2 v/v), while total phospholipids from the medium were extracted in chloroform /methanol (2:1 v/v). Efflux was determined as percent of total ^3[H] Phospholipids in the medium. All results were conformed at least twice. (S2 Fig.)

ABCA1 [2] = target: T1, ABCA1; assay: ABCA1-mediated cholesterol efflux from BHK-ABCA1 cells, acceptor in media; assay type: cell-based; design: expressed in transfected cells; host or cells: BHK cells, stably transfected, induced with 10 nM mifepristone (gift of J. F. Oram); details: BHK-ABCA1 induced with mifepristone, 4 h, 37°C, mean ± SD
Text: BHK cells stably transfected with an ABCA1 or ABCG1 expression vector that is mifepristone inducible and cells transfected with the same vector lacking the ABCA1 cDNA insert (mutant or mock-transfected) were generously provided by the late Dr. John F. Oram from the Department of Medicine, University of Washington, and were characterized and cultured as previously described. […] Mouse-derived peritoneal macrophages J774 were purchased from American Tissue Culture Collection (ATCC TIB-67, Cederlane, Burlington, Canada). For induction of ABCA1, BHK cells were incubated for 18–20 h with 10 nM mifepristone. J774 macrophages were stimulated with 0.3 mM Cpt-cAMP 8-(4-Chlorophenylthio)-cyclic adenosine monophosphate (Sigma). All BHK and J774 macrophages cells were respectively grown and maintained in DMEM and RPMI containing 10% fetal serum until experimental treatment. Studies were carried out on standard 24-well plates (150,000 cells/well) unless stated otherwise
We investigated cholesterol efflux from BHK cells after adding lipid free CS-6253 to media cell culture or to human EDTA-plasma which had been stored at -80°C. BHK overexpressing human ABCA1 were labeled with 2 μCi/ml ^3H-free cholesterol (Perkin Elmer, Norwalk, Connecticut) for 24 h. Afterward, BHK-ABCA1 were stimulated with 10 nmol/l mifepristone for 18–20 h (13). Cells were incubated with various doses of acceptor in media for 4 h at 37°C. Alternatively, plasma samples were first pre-incubated for 5 min at 37°C in plasma at mole ratios (10:1 or 1:1 relative to plasma apo A-I). To obtain the HDL fraction, apoB lipoproteins were precipitated from plasma by polyethylene glycol (PEG). […]
Fig 2 Effect of CS-6253 treatment on cholesterol efflux. […] Cholesterol efflux from either ABCA1 cells or control cells to apo A-I (closed circles), and CS-6253 (closed triangles) was determined at the indicated time points. […] ABCA1 was detected from THP-1 foam cells lysis at 4°C with lysis buffer containing 0.5% n-dodecylmaltoside in the presence of a protease inhibitor mixture followed by low speed centrifugation to remove cell debris. Protein concentration was determined by standard assay (Bio-Rad). […] After electrophoresis, ABCA1 was detected by an anti-ABCA1 antibody. […] E. Quantification of FC and CE in foam cells after interaction with CS-6253 and apoA-I. After a period of 4h cholesterol efflux, THP-1 foam cell lipids were extracted with hexane: isopropanol (3v/2v) as under ‘‘Material and Methods’. 3[H]-FC and 3[H]-CE were separated by TLC and located by exposure to iodine vapor, and were scraped off into liquid scintillating vials and assayed for radioactivity. […]

apolipoprotein A-I [apo A-I]
Km (ABCA1 [1]; 2 h): 0.14 ± 0.02 µM
Km, phospholipid efflux (ABCA1 [1]; 2 h): 3.65 ± 0.49 µg/mL
Vmax, phospholipid efflux (ABCA1 [1]): 0.77±0.02 % efflux/2h
Km (ABCA1 [2]): 0.15 ± 0.02 µM
Km, cholesterol efflux (ABCA1 [2]): 4.53 ± 0.67 µg/mL
